Consider one molecule from PMC3089468 (Nucleic Acids Research, 2011).

Some targets named below: λCI_Arnt362 V306D (human, UniProt P27540 1-362, V306D); λCI_Arnt362 A339D (human, UniProt P27540 1-362, A339D); λCI_Arnt362 C265R (human, UniProt P27540 1-362, C265R); λCI_Arnt362 M267K (human, UniProt P27540 1-362, M267K); λCI_Arnt362 L221H (human, UniProt P27540 1-362, L221H); λCI_Arnt362 G341D (human, UniProt P27540 1-362, G341D); λCI_Arnt362 C308R (human, UniProt P27540 1-362, C308R).

Holding throughout (test): two-hybrid

A value given as a limit tells only on which side of the number the result lay.

Sequence of λCI_Arnt362 C308R (P27540 1-362 C308R): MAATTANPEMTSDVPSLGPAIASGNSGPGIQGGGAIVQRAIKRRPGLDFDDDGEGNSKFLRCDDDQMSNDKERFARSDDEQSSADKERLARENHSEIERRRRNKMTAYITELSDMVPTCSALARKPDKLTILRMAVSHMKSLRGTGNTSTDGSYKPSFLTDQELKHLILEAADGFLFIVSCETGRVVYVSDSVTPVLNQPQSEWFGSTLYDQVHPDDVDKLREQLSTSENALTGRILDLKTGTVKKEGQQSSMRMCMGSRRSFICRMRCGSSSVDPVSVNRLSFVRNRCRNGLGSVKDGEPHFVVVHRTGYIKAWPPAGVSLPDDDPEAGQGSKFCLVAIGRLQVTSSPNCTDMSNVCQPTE
Sequence of λCI_Arnt362 C265R (P27540 1-362 C265R): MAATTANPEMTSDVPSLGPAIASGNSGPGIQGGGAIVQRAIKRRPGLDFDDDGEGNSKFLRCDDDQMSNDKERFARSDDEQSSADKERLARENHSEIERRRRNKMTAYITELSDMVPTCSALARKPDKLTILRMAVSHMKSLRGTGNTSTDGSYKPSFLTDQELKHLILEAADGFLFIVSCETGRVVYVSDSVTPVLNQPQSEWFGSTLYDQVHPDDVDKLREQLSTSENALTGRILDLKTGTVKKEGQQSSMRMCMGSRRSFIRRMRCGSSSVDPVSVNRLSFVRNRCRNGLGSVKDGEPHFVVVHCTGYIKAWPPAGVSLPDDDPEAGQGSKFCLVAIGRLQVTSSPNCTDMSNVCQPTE
Sequence of λCI_Arnt362 M267K (P27540 1-362 M267K): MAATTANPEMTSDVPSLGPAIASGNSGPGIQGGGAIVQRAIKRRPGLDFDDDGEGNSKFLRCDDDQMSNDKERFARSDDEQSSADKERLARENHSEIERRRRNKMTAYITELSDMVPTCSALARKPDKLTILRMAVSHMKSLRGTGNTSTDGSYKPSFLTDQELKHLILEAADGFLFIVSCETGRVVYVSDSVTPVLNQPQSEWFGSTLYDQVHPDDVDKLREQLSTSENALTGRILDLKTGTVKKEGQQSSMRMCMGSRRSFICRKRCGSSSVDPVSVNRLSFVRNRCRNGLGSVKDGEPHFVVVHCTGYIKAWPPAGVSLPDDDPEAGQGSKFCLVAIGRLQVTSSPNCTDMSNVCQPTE
Sequence of λCI_Arnt362 V306D (P27540 1-362 V306D): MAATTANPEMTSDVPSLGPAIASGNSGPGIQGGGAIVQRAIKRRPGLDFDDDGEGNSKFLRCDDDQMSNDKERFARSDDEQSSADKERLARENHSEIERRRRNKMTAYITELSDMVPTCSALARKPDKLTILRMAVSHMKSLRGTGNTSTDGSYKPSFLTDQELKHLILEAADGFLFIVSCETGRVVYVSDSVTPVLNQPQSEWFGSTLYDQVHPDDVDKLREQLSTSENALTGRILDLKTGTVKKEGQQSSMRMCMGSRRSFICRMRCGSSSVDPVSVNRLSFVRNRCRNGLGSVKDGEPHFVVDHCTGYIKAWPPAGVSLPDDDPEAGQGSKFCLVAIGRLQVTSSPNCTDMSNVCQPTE
Sequence of λCI_Arnt362 G341D (P27540 1-362 G341D): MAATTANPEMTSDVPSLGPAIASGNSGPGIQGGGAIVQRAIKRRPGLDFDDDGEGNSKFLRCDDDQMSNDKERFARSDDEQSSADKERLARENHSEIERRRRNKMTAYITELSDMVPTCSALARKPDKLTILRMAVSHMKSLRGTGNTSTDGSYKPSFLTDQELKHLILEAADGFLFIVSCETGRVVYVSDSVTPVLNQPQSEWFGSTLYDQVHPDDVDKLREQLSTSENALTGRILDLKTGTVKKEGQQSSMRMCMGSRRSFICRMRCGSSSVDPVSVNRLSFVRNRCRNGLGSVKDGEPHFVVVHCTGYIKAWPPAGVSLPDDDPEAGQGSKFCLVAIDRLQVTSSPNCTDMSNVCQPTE
Sequence of λCI_Arnt362 L221H (P27540 1-362 L221H): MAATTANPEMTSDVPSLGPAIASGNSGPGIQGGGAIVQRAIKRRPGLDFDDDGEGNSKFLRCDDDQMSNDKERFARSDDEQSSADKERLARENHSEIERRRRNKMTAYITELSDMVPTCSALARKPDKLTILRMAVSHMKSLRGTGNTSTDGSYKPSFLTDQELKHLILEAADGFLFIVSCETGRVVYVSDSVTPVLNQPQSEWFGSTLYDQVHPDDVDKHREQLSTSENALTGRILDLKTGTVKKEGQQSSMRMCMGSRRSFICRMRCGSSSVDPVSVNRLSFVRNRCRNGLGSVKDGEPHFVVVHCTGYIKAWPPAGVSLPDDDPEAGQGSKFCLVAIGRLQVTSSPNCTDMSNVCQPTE
Sequence of λCI_Arnt362 A339D (P27540 1-362 A339D): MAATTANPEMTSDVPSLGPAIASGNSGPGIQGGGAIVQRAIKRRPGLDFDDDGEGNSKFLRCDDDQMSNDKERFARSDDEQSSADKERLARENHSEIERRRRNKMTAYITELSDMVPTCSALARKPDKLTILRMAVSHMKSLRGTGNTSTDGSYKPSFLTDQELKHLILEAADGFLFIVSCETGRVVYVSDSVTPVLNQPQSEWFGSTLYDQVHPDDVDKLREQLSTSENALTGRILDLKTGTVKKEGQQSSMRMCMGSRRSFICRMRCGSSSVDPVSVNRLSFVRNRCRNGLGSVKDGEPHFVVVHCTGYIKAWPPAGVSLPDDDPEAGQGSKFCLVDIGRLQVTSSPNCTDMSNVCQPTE

B1: RNAPα_AhR278 (domain or fragment, mouse, UniProt P30561 1-278, looked up)
chain: MSSGANITYASRKRRKPVQKTVKPIPAEGIKSNPSKRHRDRLNTELDRLASLLPFPQDVINKLDKLSVLRLSVSYLRAKSFFDVALKSTPADRNGGQDQCRAQIRDWQDLQEGEFLLQALNGFVLVVTADALVFYASSTIQDYLGFQQSDVIHQSVYELIHTEDRAEFQRQLHWALNPDSAQGVDEAHGPPQAAVYYTPDQLPPENASFMERCFRCRLRCLLDNSSGFLAMNFQGRLKYLHGQNKKGKDGALLPPQLALFAIATPLQPPSILEIRTKN
Turning to B1, the “β-gal activity relative to wt” value in the test with λCI_Arnt362 V306D is < 60 % of wt β-gal activity; in the test with λCI_Arnt362 A339D, < 60 % of wt β-gal activity; with λCI_Arnt362 C265R it was < 60 % of wt β-gal activity; with λCI_Arnt362 M267K it was < 60 % of wt β-gal activity; with λCI_Arnt362 L221H it was < 60 % of wt β-gal activity; with λCI_Arnt362 G341D, 47 % of wt activity. In addition, the “β-gal activity relative to wt” value with λCI_Arnt362 C308R is < 60 % of wt β-gal activity.
